Laboratory results taken from IntAct's records for PubMed 28202711.

Tests used:
[1] = target: 1433g_human YWHAG (UniProt P61981)
[2] = target: 1433g_human YWHAG (UniProt P61981); remark: listed apart in the source

Chain of UniProt P61981 (P61981 whole entry): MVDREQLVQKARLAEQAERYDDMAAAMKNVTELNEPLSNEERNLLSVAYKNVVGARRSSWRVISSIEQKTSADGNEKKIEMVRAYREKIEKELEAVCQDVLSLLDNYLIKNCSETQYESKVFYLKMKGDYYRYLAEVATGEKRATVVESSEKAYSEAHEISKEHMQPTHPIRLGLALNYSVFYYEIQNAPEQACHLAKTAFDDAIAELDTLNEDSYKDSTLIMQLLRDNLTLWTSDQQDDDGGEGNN

Row | Substance | effect of a mutation on the interaction [1] | effect of a mutation on the interaction [2]
1 | Leucine-rich repeat serine/threonine-protein kinase 2 (Homo sapiens), Q5S007 R1441C | decreasing interaction strength | –
2 | Leucine-rich repeat serine/threonine-protein kinase 2 (Homo sapiens), Q5S007 R1441G | decreasing interaction strength | with no effect
3 | Leucine-rich repeat serine/threonine-protein kinase 2 (Homo sapiens), Q5S007 R1441H | decreasing interaction strength | –
